Measurements reported in publication PMC5562738, “Structural basis for the broad substrate specificity of the human tyrosylprotein sulfotransferase-1” (Scientific Reports, 2017).

Legend:
[1] = biological target: recombinant human TPST1 (Lys43-Lys341), as crystallised with PAP and C4P5Y5 (human) (UniProt O60507)
[2] = biological target: the molecule itself; assay: crystal structure; human TPST1 (2.5 mg/ml) with 2 mM PAP and 1 mM C4P5Y5, sitting-drop vapor diffusion at 20 °C, 0.1 M Tris-HCl pH 8.5; 1.6 Å
[3] = biological target: the molecule itself; assay: crystal structure; human TPST1 (5.0 mg/ml, His tag removed) with 2 mM PAP and 3 mM gastrin peptide, sitting-drop vapor diffusion at 20 °C, crystals soaked 1 d with 30 mM gastrin peptide; 2.3 Å

gastrin peptide
K m of tyrosine sulfation of the peptide by human TPST1 ([35S]PAPS, TLC, 30 °C, pH 6.0) [1]: 652 µM

B1: recombinant human TPST1 (Lys43-Lys341), as crystallised with PAP and C4P5Y5 (enzyme, UniProt O60507 43-341, looked up)
chain: KLESTRTTVRTGLDLKANKTFAYHKDMPLIFIGGVPRSGTTLMRAMLDAHPDIRCGEETRVIPRILALKQMWSRSSKEKIRLDEAGVTDEVLDSAMQAFLLEIIVKHGEPAPYLCNKDPFALKSLTYLSRLFPNAKFLLMVRDGRASVHSMISRKVTIAGFDLNSYRDCLTKWNRAIETMYNQCMEVGYKKCMLVHYEQLVLHPERWMRTLLKFLQIPWNHSVLHHEEMIGKAGGVSLSKVERSTDQVIKPVNVGALSKWVGKIPPDVLQDMAVIAPMLAKLGYDPYANPPNYGKPDPK
notes: thrombin site after the His tag (pET15b); Ordered in the crystal: Tyr65-Pro338 and Ala64-Gly336; also called tyrosylprotein sulfotransferase-1; core domain of human TPST1; source: Origami (DE3) cells carrying pGro7 (GroEL, GroES), purified (Ni-NTA, Superdex 200)
stoichiometry N [2]: 2

B2: recombinant human TPST1 (Lys43-Lys341), His tag removed, as crystallised with PAP and the gastrin peptide (enzyme, UniProt O60507 43-341, looked up)
chain: KLESTRTTVRTGLDLKANKTFAYHKDMPLIFIGGVPRSGTTLMRAMLDAHPDIRCGEETRVIPRILALKQMWSRSSKEKIRLDEAGVTDEVLDSAMQAFLLEIIVKHGEPAPYLCNKDPFALKSLTYLSRLFPNAKFLLMVRDGRASVHSMISRKVTIAGFDLNSYRDCLTKWNRAIETMYNQCMEVGYKKCMLVHYEQLVLHPERWMRTLLKFLQIPWNHSVLHHEEMIGKAGGVSLSKVERSTDQVIKPVNVGALSKWVGKIPPDVLQDMAVIAPMLAKLGYDPYANPPNYGKPDPK
notes: also called tyrosylprotein sulfotransferase-1; protomer-1A; source: Origami (DE3) cells carrying pGro7 (GroEL, GroES), purified (Ni-NTA, Superdex 200), His tag removed with bovine thrombin; not shown: 6xHis, N-terminal, cleaved
stoichiometry N [3]: 2
